“And” between values parts separate entries of the source, which are not always exact repeats. Equal values may be shown once.

To fix the notation:
B1: Trastuzumab HCDR3 variant ARYGGYYYYMDY (Fab, V domains shown)
VH: EVQLVESGGGLVQPGGSLRLSCAASGFNIKDTYIHWVRQAPGKGLEWVARIYPTNGYTRYADSVKGRFTISADTSKNTAYLQMNSLRAEDTAVYYCARYGGYYYYMDYWGQGTLVTVSS
VL: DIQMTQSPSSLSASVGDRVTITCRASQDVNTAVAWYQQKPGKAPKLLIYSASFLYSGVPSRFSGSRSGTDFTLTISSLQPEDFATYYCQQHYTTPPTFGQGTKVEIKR
B2: Trastuzumab HCDR3 variant ARYRHWYYDYDY (Fab, V domains shown)
VH: EVQLVESGGGLVQPGGSLRLSCAASGFNIKDTYIHWVRQAPGKGLEWVARIYPTNGYTRYADSVKGRFTISADTSKNTAYLQMNSLRAEDTAVYYCARYRHWYYDYDYWGQGTLVTVSS
VL: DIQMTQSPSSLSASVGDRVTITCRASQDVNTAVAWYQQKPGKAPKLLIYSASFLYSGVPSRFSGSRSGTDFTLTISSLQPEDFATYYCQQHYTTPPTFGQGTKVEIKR
B3: Trastuzumab HCDR3 variant ARYYYYSYAMDY (Fab, V domains shown)
VH: EVQLVESGGGLVQPGGSLRLSCAASGFNIKDTYIHWVRQAPGKGLEWVARIYPTNGYTRYADSVKGRFTISADTSKNTAYLQMNSLRAEDTAVYYCARYYYYSYAMDYWGQGTLVTVSS
VL: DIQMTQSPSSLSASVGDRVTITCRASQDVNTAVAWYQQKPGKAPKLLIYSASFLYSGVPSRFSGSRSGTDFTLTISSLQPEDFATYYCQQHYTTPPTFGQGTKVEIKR
B4: Trastuzumab HCDR3 variant ARYPPGYYIMDF (Fab, V domains shown)
VH: EVQLVESGGGLVQPGGSLRLSCAASGFNIKDTYIHWVRQAPGKGLEWVARIYPTNGYTRYADSVKGRFTISADTSKNTAYLQMNSLRAEDTAVYYCARYPPGYYIMDFWGQGTLVTVSS
VL: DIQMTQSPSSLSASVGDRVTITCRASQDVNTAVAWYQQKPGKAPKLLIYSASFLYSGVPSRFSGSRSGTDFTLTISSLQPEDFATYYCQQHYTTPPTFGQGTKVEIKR
B5: Trastuzumab HCDR3 variant ARYGTIYFHFDY (Fab, V domains shown)
VH: EVQLVESGGGLVQPGGSLRLSCAASGFNIKDTYIHWVRQAPGKGLEWVARIYPTNGYTRYADSVKGRFTISADTSKNTAYLQMNSLRAEDTAVYYCARYGTIYFHFDYWGQGTLVTVSS
VL: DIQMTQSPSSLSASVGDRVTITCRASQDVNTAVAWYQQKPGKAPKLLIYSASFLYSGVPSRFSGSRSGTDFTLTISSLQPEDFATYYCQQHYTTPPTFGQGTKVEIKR
B6: Trastuzumab HCDR3 variant ARYGLYYYYFDY (Fab, V domains shown)
VH: EVQLVESGGGLVQPGGSLRLSCAASGFNIKDTYIHWVRQAPGKGLEWVARIYPTNGYTRYADSVKGRFTISADTSKNTAYLQMNSLRAEDTAVYYCARYGLYYYYFDYWGQGTLVTVSS
VL: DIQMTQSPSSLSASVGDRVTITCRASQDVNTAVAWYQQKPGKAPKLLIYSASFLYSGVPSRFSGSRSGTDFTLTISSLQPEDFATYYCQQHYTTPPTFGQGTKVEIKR
B7: Trastuzumab HCDR3 variant ATYGRDYYHFAS (Fab, V domains shown)
VH: EVQLVESGGGLVQPGGSLRLSCAASGFNIKDTYIHWVRQAPGKGLEWVARIYPTNGYTRYADSVKGRFTISADTSKNTAYLQMNSLRAEDTAVYYCATYGRDYYHFASWGQGTLVTVSS
VL: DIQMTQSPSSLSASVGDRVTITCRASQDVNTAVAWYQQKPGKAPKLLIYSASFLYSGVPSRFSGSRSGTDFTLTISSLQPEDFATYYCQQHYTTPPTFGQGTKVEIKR
B8: Trastuzumab HCDR3 variant ARYGSYNYYFGD (Fab, V domains shown)
VH: EVQLVESGGGLVQPGGSLRLSCAASGFNIKDTYIHWVRQAPGKGLEWVARIYPTNGYTRYADSVKGRFTISADTSKNTAYLQMNSLRAEDTAVYYCARYGSYNYYFGDWGQGTLVTVSS
VL: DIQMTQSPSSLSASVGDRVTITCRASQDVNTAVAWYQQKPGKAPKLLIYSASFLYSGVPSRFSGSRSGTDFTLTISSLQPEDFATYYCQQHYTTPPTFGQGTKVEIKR
B9: Trastuzumab HCDR3 variant ARYGTGNYAMDY (Fab, V domains shown)
VH: EVQLVESGGGLVQPGGSLRLSCAASGFNIKDTYIHWVRQAPGKGLEWVARIYPTNGYTRYADSVKGRFTISADTSKNTAYLQMNSLRAEDTAVYYCARYGTGNYAMDYWGQGTLVTVSS
VL: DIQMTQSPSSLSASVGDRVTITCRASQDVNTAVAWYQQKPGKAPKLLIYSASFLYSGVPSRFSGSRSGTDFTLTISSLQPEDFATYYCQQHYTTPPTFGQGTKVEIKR
B10: Trastuzumab HCDR3 variant ARYGRGYYYFDY (Fab, V domains shown)
VH: EVQLVESGGGLVQPGGSLRLSCAASGFNIKDTYIHWVRQAPGKGLEWVARIYPTNGYTRYADSVKGRFTISADTSKNTAYLQMNSLRAEDTAVYYCARYGRGYYYFDYWGQGTLVTVSS
VL: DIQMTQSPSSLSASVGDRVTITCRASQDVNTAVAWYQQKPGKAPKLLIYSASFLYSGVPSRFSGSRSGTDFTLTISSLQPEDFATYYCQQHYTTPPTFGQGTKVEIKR
B11: Trastuzumab HCDR3 variant ARYGVVRYDFAY (Fab, V domains shown)
VH: EVQLVESGGGLVQPGGSLRLSCAASGFNIKDTYIHWVRQAPGKGLEWVARIYPTNGYTRYADSVKGRFTISADTSKNTAYLQMNSLRAEDTAVYYCARYGVVRYDFAYWGQGTLVTVSS
VL: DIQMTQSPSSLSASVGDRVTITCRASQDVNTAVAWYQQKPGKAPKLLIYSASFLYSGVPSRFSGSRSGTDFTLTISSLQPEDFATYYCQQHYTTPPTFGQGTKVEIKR
B12: Trastuzumab HCDR3 variant ARYGYYSYAMDY (Fab, V domains shown)
VH: EVQLVESGGGLVQPGGSLRLSCAASGFNIKDTYIHWVRQAPGKGLEWVARIYPTNGYTRYADSVKGRFTISADTSKNTAYLQMNSLRAEDTAVYYCARYGYYSYAMDYWGQGTLVTVSS
VL: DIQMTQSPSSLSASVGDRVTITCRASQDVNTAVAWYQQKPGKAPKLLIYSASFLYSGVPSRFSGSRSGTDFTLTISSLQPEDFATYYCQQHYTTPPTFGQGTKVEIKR
B13: Trastuzumab HCDR3 variant ATWHYGGYFMSG (Fab, V domains shown)
VH: EVQLVESGGGLVQPGGSLRLSCAASGFNIKDTYIHWVRQAPGKGLEWVARIYPTNGYTRYADSVKGRFTISADTSKNTAYLQMNSLRAEDTAVYYCATWHYGGYFMSGWGQGTLVTVSS
VL: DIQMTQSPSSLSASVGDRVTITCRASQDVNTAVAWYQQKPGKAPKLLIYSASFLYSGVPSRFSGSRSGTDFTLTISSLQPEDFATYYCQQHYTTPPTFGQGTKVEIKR
B14: Trastuzumab HCDR3 variant ARYGWGYYYFDY (Fab, V domains shown)
VH: EVQLVESGGGLVQPGGSLRLSCAASGFNIKDTYIHWVRQAPGKGLEWVARIYPTNGYTRYADSVKGRFTISADTSKNTAYLQMNSLRAEDTAVYYCARYGWGYYYFDYWGQGTLVTVSS
VL: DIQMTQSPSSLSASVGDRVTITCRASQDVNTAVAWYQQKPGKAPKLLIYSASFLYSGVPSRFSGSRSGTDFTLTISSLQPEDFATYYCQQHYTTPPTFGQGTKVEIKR
B15: Trastuzumab HCDR3 variant ARYGSYFYYMDY (Fab, V domains shown)
VH: EVQLVESGGGLVQPGGSLRLSCAASGFNIKDTYIHWVRQAPGKGLEWVARIYPTNGYTRYADSVKGRFTISADTSKNTAYLQMNSLRAEDTAVYYCARYGSYFYYMDYWGQGTLVTVSS
VL: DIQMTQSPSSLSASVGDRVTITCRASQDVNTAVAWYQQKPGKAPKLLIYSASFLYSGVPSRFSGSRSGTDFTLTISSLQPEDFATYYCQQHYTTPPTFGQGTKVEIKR
B16: Trastuzumab HCDR3 variant ARYGYDGYYFAY (Fab, V domains shown)
VH: EVQLVESGGGLVQPGGSLRLSCAASGFNIKDTYIHWVRQAPGKGLEWVARIYPTNGYTRYADSVKGRFTISADTSKNTAYLQMNSLRAEDTAVYYCARYGYDGYYFAYWGQGTLVTVSS
VL: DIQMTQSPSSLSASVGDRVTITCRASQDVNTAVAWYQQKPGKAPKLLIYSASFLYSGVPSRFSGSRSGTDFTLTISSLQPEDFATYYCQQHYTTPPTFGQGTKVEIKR
B17: Trastuzumab HCDR3 variant ARYGYYGYYMDY (Fab, V domains shown)
VH: EVQLVESGGGLVQPGGSLRLSCAASGFNIKDTYIHWVRQAPGKGLEWVARIYPTNGYTRYADSVKGRFTISADTSKNTAYLQMNSLRAEDTAVYYCARYGYYGYYMDYWGQGTLVTVSS
VL: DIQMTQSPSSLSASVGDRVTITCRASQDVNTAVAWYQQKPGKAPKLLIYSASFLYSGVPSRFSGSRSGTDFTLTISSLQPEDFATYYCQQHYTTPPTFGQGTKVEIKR
B18: Trastuzumab HCDR3 variant ARYYYGFYYFDY (Fab, V domains shown)
VH: EVQLVESGGGLVQPGGSLRLSCAASGFNIKDTYIHWVRQAPGKGLEWVARIYPTNGYTRYADSVKGRFTISADTSKNTAYLQMNSLRAEDTAVYYCARYYYGFYYFDYWGQGTLVTVSS
VL: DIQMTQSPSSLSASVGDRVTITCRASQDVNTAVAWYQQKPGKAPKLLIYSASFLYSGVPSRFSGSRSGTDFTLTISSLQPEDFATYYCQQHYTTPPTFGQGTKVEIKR
B19: Trastuzumab HCDR3 variant ARYTFGAYYYSD (Fab, V domains shown)
VH: EVQLVESGGGLVQPGGSLRLSCAASGFNIKDTYIHWVRQAPGKGLEWVARIYPTNGYTRYADSVKGRFTISADTSKNTAYLQMNSLRAEDTAVYYCARYTFGAYYYSDWGQGTLVTVSS
VL: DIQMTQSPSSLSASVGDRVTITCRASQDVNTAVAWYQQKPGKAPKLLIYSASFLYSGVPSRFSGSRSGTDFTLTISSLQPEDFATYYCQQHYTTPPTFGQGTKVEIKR
B20: Trastuzumab HCDR3 variant ARYGYGYFYMDY (Fab, V domains shown)
VH: EVQLVESGGGLVQPGGSLRLSCAASGFNIKDTYIHWVRQAPGKGLEWVARIYPTNGYTRYADSVKGRFTISADTSKNTAYLQMNSLRAEDTAVYYCARYGYGYFYMDYWGQGTLVTVSS
VL: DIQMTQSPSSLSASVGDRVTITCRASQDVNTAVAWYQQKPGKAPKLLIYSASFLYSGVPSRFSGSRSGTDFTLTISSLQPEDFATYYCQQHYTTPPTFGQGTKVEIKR
B21: Trastuzumab HCDR3 variant ARYWMGVYEFDY (Fab, V domains shown)
VH: EVQLVESGGGLVQPGGSLRLSCAASGFNIKDTYIHWVRQAPGKGLEWVARIYPTNGYTRYADSVKGRFTISADTSKNTAYLQMNSLRAEDTAVYYCARYWMGVYEFDYWGQGTLVTVSS
VL: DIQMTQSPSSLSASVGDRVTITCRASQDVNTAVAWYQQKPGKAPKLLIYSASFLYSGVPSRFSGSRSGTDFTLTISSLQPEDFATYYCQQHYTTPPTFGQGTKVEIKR
B22: Trastuzumab HCDR3 variant ARYGYGYYVMDY (Fab, V domains shown)
VH: EVQLVESGGGLVQPGGSLRLSCAASGFNIKDTYIHWVRQAPGKGLEWVARIYPTNGYTRYADSVKGRFTISADTSKNTAYLQMNSLRAEDTAVYYCARYGYGYYVMDYWGQGTLVTVSS
VL: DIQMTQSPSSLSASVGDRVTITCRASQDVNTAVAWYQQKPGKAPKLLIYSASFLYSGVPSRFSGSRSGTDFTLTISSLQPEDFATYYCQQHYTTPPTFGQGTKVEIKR
B23: Trastuzumab HCDR3 variant ARYGYGYYYMDY (Fab, V domains shown)
VH: EVQLVESGGGLVQPGGSLRLSCAASGFNIKDTYIHWVRQAPGKGLEWVARIYPTNGYTRYADSVKGRFTISADTSKNTAYLQMNSLRAEDTAVYYCARYGYGYYYMDYWGQGTLVTVSS
VL: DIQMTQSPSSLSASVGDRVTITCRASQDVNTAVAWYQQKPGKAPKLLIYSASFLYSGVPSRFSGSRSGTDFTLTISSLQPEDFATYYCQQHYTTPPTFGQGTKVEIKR
B24: Trastuzumab HCDR3 variant ARYPSVVYAFGI (Fab, V domains shown)
VH: EVQLVESGGGLVQPGGSLRLSCAASGFNIKDTYIHWVRQAPGKGLEWVARIYPTNGYTRYADSVKGRFTISADTSKNTAYLQMNSLRAEDTAVYYCARYPSVVYAFGIWGQGTLVTVSS
VL: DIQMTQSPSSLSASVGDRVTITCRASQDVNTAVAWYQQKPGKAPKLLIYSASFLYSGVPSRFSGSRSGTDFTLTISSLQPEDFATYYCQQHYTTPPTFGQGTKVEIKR
B25: Trastuzumab HCDR3 variant ARYPGYYYYFDY (Fab, V domains shown)
VH: EVQLVESGGGLVQPGGSLRLSCAASGFNIKDTYIHWVRQAPGKGLEWVARIYPTNGYTRYADSVKGRFTISADTSKNTAYLQMNSLRAEDTAVYYCARYPGYYYYFDYWGQGTLVTVSS
VL: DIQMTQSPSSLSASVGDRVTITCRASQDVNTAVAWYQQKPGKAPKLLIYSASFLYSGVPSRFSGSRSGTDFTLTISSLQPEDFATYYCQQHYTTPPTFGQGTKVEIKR
B26: Trastuzumab HCDR3 variant ARYGYYLYAMDY (Fab, V domains shown)
VH: EVQLVESGGGLVQPGGSLRLSCAASGFNIKDTYIHWVRQAPGKGLEWVARIYPTNGYTRYADSVKGRFTISADTSKNTAYLQMNSLRAEDTAVYYCARYGYYLYAMDYWGQGTLVTVSS
VL: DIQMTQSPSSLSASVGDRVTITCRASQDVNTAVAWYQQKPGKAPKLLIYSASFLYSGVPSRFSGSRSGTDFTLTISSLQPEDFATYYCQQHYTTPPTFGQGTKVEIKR
B27: Trastuzumab HCDR3 variant ARYGLGYYYMDY (Fab, V domains shown)
VH: EVQLVESGGGLVQPGGSLRLSCAASGFNIKDTYIHWVRQAPGKGLEWVARIYPTNGYTRYADSVKGRFTISADTSKNTAYLQMNSLRAEDTAVYYCARYGLGYYYMDYWGQGTLVTVSS
VL: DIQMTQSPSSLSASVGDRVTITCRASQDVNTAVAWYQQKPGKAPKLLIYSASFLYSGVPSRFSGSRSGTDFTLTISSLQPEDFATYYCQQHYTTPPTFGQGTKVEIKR
B28: Trastuzumab HCDR3 variant ARYGLGYYYFDY (Fab, V domains shown)
VH: EVQLVESGGGLVQPGGSLRLSCAASGFNIKDTYIHWVRQAPGKGLEWVARIYPTNGYTRYADSVKGRFTISADTSKNTAYLQMNSLRAEDTAVYYCARYGLGYYYFDYWGQGTLVTVSS
VL: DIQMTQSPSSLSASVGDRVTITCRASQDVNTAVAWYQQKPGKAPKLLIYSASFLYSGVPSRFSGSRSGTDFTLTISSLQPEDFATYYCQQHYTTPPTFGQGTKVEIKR
B29: Trastuzumab HCDR3 variant ATWYGGNYHMYP (Fab, V domains shown)
VH: EVQLVESGGGLVQPGGSLRLSCAASGFNIKDTYIHWVRQAPGKGLEWVARIYPTNGYTRYADSVKGRFTISADTSKNTAYLQMNSLRAEDTAVYYCATWYGGNYHMYPWGQGTLVTVSS
VL: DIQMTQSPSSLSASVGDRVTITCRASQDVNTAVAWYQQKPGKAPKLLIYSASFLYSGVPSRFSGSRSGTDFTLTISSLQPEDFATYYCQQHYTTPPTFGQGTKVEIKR

The assay has as its target T1, HER2 (human epidermal growth factor receptor 2) (human, UniProt P04626 23-629).
T1 construct: also called Antigen: HER2
Put plainly: SPR. For orientation: In SPR one partner is held on a chip, and binding of the other changes the refractive index at the surface.
Regarding B1, binding was put at a Kd of 16.3 nM and the “log(KD (M))” value is -7.79.
The matching figures for B2: 6.15 nM and -8.21.
The matching figures for B3: 6.9 nM and -8.16.
The matching figures for B4: 23.5 nM and -7.63.
With B5, the affinity, expressed as Kd, was 23.9 nM and the “log(KD (M))” value is -7.62.
The matching figures for B6: 15.5 nM and -7.81.
Turning to B7, the Kd was found to be 7.55 nM and the “log(KD (M))” value was -8.12.
Turning to B8, binding was put at a Kd of 13.6 nM and the “log(KD (M))” value is -7.87.
Consider B9, for which the dissociation constant Kd is 26.3 nM and the “log(KD (M))” value was -7.58.
The matching figures for B10: 26.8 nM and -7.57.
The matching figures for B11: 20.5 nM and -7.69.
As for B12, binding was characterised by a dissociation constant (Kd) of 10.2 nM and the “log(KD (M))” value is -7.99.
On to B13, for which the Kd is 22.5 nM and 22.4 nM; the “log(KD (M))” value was -7.65.
As to B14, binding was put at a Kd of 14.7 nM and the “log(KD (M))” value was -7.83.
Consider B15, for which the affinity, expressed as Kd, was 6.53 nM and the “log(KD (M))” value is -8.19.
The matching figures for B16: 22.2 nM and -7.65.
The matching figures for B17: 23.3 nM and -7.63.
The matching figures for B18: 1.21 nM and -8.92.
For B19, the Kd was 10.9 nM and the “log(KD (M))” value was -7.96.
The matching figures for B20: 21.9 nM and -7.66.
The matching figures for B21: 21.7 nM and -7.66.
The matching figures for B22: 8.65 nM and -8.06.
Consider B23, for which the Kd was 12.2 nM and the “log(KD (M))” value was -7.91.
The matching figures for B24: 22.3 nM and -7.65.
The matching figures for B25: 17.9 nM and -7.75.
The matching figures for B26: 10.1 nM and -7.99.
As to B27, the affinity, expressed as Kd, was 10.5 nM and the “log(KD (M))” value is -7.98.
Take B28: the dissociation constant Kd is 15.7 nM and the “log(KD (M))” value is -7.8.
The matching figures for B29: 11.2 nM and -7.95.

For orientation: Kd means the constant that tells how readily two partners part at equilibrium. A high value points to a looser complex.
